In publication PMC8191757, “m6A RNA methylation of major satellite repeat transcripts facilitates chromatin association and RNA:DNA hybrid formation in mouse heterochromatin”:

Target: T1, NLS-HBD(H1)-eGFP (mouse, UniProt O70338 27-76)
T1 chain: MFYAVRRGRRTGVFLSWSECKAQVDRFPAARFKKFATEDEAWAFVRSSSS
Experiment: EMSA; comparable to unmodified; EMSA: 20 nM hybrid, 125 nM-0.5 uM protein, 20 mM Tris-HCl pH 8.0, 150 mM NaCl, 5 mM MgCl2, 12.5% glycerol, 0.05% Triton X-100, 1 mM DTT, 1 h at 4 C
Conditions: protein: recombinant, tags: N-terminal NLS PKKKRKV, 6xHis-MBP cleaved by AcTEV, label: 5'-Cy5 on RNA, blunt

B1: MSR SR2 RNA:DNA hybrid, m6A (DNA:RNA)
RNA: UUUUCCACCUUUUUCAGUUUUCCUCGCCAUAUUUC
DNA: GAAATATGGCGAGGAAAACTGAAAAAGGTGGAAAA
modifications: m6A at RNA positions 7, 16, 29, 31
B1: binds.
